Reference: IntAct's records for PubMed 23770091

B1: Discoidin, CUB and LCCL domain-containing protein 2 (Homo sapiens), Q96PD2 (parent)
chain: MASRAVVRARRCPQCPQVRAAAAAPAWAALPLSRSLPPCSNSSSFSMPLFLLLLLVLLLLLEDAGAQQGDGCGHTVLGPESGTLTSINYPQTYPNSTVCEWEIRVKMGERVRIKFGDFDIEDSDSCHFNYLRIYNGIGVSRTEIGKYCGLGLQMNHSIESKGNEITLLFMSGIHVSGRGFLASYSVIDKQDLITCLDTASNFLEPEFSKYCPAGCLLPFAEISGTIPHGYRDSSPLCMAGVHAGVVSNTLGGQISVVISKGIPYYESSLANNVTSVVGHLSTSLFTFKTSGCYGTLGMESGVIADPQITASSVLEWTDHTGQENSWKPKKARLKKPGPPWAAFATDEYQWLQIDLNKEKKITGIITTGSTMVEHNYYVSAYRILYSDDGQKWTVYREPGVEQDKIFQGNKDYHQDVRNNFLPPIIARFIRVNPTQWQQKIAMKMELLGCQFIPKGRPPKLTQPPPPRNSNDLKNTTAPPKIAKGRAPKFTQPLQPRSSNEFPAQTEQTTASPDIRNTTVTPNVTKDVALAAVLVPVLVMVLTTLILILVCAWHWRNRKKKTEGTYDLPYWDRAGWWKGMKQFLPAKAVDHEETPVRYSSSEVNHLSPREVTTVLQADSAEYAQPLVGGIVGTLHQRSTFKPEEGKEAGYADLDPYNSPGQEVYHAYAEPLPITGPEYATPIIMDMSGHPTTSVGQPSTSTFKATGNQPPPLVGTYNTLLSRTDSCSSAQAQYDTPKAGKPGLPAPDELVYQVPQSTQEVSGAGRDGECDVFKEIL

Key:
crkl_human CRKL, P46109 = variants of: B1; details: with crkl_human CRKL
fyn_human FYN, P06241 = variants of: B1; details: with fyn_human FYN
Chain of fyn_human FYN, P06241 (P06241 whole entry, looked up): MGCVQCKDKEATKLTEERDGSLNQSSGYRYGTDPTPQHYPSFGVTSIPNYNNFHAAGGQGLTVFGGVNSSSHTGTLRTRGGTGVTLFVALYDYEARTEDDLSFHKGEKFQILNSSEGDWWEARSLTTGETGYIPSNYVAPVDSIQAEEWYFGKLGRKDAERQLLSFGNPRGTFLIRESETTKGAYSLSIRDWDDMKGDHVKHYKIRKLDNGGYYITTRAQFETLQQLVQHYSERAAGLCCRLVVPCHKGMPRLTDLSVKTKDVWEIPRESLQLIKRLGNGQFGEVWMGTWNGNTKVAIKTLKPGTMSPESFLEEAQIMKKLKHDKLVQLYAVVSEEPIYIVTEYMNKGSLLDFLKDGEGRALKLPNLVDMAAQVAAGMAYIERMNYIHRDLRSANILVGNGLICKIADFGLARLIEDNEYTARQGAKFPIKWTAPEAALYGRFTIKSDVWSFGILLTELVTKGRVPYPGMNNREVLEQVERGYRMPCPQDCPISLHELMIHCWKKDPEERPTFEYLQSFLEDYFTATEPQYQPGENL

Chain of crkl_human CRKL, P46109 (P46109 whole entry): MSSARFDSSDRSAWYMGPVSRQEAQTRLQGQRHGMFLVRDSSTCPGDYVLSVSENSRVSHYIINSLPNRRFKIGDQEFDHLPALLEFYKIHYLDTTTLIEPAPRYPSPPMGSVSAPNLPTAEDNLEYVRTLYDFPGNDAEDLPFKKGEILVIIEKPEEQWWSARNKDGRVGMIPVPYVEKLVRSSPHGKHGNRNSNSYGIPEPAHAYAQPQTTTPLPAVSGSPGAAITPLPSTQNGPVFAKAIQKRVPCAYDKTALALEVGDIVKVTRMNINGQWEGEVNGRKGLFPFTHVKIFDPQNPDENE

Row | Variant | effect of a mutation on the interaction (crkl_human CRKL, P46109) | effect of a mutation on the interaction (fyn_human FYN, P06241)
1 | Y565F | disrupting interaction | disrupting interaction
2 | Y621F | disrupting interaction | disrupting interaction
3 | Y655F | disrupting interaction | disrupting interaction
4 | Y666F | disrupting interaction | disrupting interaction
5 | Y677F | disrupting interaction | disrupting interaction
6 | Y732F | disrupting interaction | disrupting interaction
7 | Y750F | disrupting interaction | disrupting interaction
